Measured values taken from patent publication US20260184782A1 (published 2026).

Key:
[1] = biological target: TIGIT55-11
[2] = biological target: TIGIT55-06
[3] = biological target: TIGIT55-05
[4] = biological target: TIGIT55-13
[5] = biological target: TIGIT55-01
[6] = biological target: TIGIT55-14

- Kd [1]: 327 nM
- Kd [2]: 153 nM
- Kd [3]: 97.6 nM
- Kd [4]: 112 nM
- Kd [5]: 15.9 nM
- Kd [6]: 139 nM
B1: hTIGIT (receptor)
chain: MMTGTIETTGNISAEKGGSIILQCHLSSTTAQVTQVNWEQQDQLLAICNADLGWHISPSFKDRVAPGPGLGLTLQSLTVNDTGEYFCIYHTYPDGTYTGRIFLEVLESSVAEHGARFQIP
